B1: Disintegrin and metalloproteinase domain-containing protein 22 (Homo sapiens), Q9P0K1-3 (parent)
chain: MQAAVAVSVPFLLLCVLGTCPPARCGQAGDASLMELEKRKENRFVERQSIVPLRLIYRSGGEDESRHDALDTRVRGDLGGPQLTHVDQASFQVDAFGTSFILDVVLNHDLLSSEYIERHIEHGGKTVEVKGGEHCYYQGHIRGNPDSFVALSTCHGLHGMFYDGNHTYLIEPEENDTTQEDFHFHSVYKSRLFEFSLDDLPSEFQQVNITPSKFILKPRPKRSKRQLRRYPRNVEEETKYIELMIVNDHLMFKKHRLSVVHTNTYAKSVVNMADLIYKDQLKTRIVLVAMETWATDNKFAISENPLITLREFMKYRRDFIKEKSDAVHLFSGSQFESSRSGAAYIGGICSLLKGGGVNEFGKTDLMAVTLAQSLAHNIGIISDKRKLASGECKCEDTWSGCIMGDTGYYLPKKFTQCNIEEYHDFLNSGGGACLFNKPSKLLDPPECGNGFIETGEECDCGTPAECVLEGAECCKKCTLTQDSQCSDGLCCKKCKFQPMGTVCREAVNDCDIRETCSGNSSQCAPNIHKMDGYSCDGVQGICFGGRCKTRDRQCKYIWGQKVTASDKYCYEKLNIEGTEKGNCGKDKDTWIQCNKRDVLCGYLLCTNIGNIPRLGELDGEITSTLVVQQGRTLNCSGGHVKLEEDVDLGYVEDGTPCGPQMMCLEHRCLPVASFNFSTCLSSKEGTICSGNGVCSNELKCVCNRHWIGSDCNTYFPHNDDAKTGITLSGNGVAGTNIIIGIIAGTILVLALILGITAWGYKNYREQRQLPQGDYVKKPGDGDSFYSDIPPGVSTNSASSSKKRSNGLSHSWSERIPDTKHISDICENGRPRSNSWQGNLGGNKKKIRGKRFRPRSNSTE
B2: Disintegrin and metalloproteinase domain-containing protein 22 (Homo sapiens), Q9P0K1-1 (parent)
chain: MQAAVAVSVPFLLLCVLGTCPPARCGQAGDASLMELEKRKENRFVERQSIVPLRLIYRSGGEDESRHDALDTRVRGDLGGPQLTHVDQASFQVDAFGTSFILDVVLNHDLLSSEYIERHIEHGGKTVEVKGGEHCYYQGHIRGNPDSFVALSTCHGLHGMFYDGNHTYLIEPEENDTTQEDFHFHSVYKSRLFEFSLDDLPSEFQQVNITPSKFILKPRPKRSKRQLRRYPRNVEEETKYIELMIVNDHLMFKKHRLSVVHTNTYAKSVVNMADLIYKDQLKTRIVLVAMETWATDNKFAISENPLITLREFMKYRRDFIKEKSDAVHLFSGSQFESSRSGAAYIGGICSLLKGGGVNEFGKTDLMAVTLAQSLAHNIGIISDKRKLASGECKCEDTWSGCIMGDTGYYLPKKFTQCNIEEYHDFLNSGGGACLFNKPSKLLDPPECGNGFIETGEECDCGTPAECVLEGAECCKKCTLTQDSQCSDGLCCKKCKFQPMGTVCREAVNDCDIRETCSGNSSQCAPNIHKMDGYSCDGVQGICFGGRCKTRDRQCKYIWGQKVTASDKYCYEKLNIEGTEKGNCGKDKDTWIQCNKRDVLCGYLLCTNIGNIPRLGELDGEITSTLVVQQGRTLNCSGGHVKLEEDVDLGYVEDGTPCGPQMMCLEHRCLPVASFNFSTCLSSKEGTICSGNGVCSNELKCVCNRHWIGSDCNTYFPHNDDAKTGITLSGNGVAGTNIIIGIIAGTILVLALILGITAWGYKNYREQRQLPQGDYVKKPGDGDSFYSDIPPGVSTNSASSSKKRSNGLSHSWSERIPDTKHISDICENGRPRSNSWQGNLGGNKKKIRGKRFRPRSNSTETLSPAKSPSSSTGSIASSRKYPYPMPPLPDEDKKVNRQSARLWETSI
partner: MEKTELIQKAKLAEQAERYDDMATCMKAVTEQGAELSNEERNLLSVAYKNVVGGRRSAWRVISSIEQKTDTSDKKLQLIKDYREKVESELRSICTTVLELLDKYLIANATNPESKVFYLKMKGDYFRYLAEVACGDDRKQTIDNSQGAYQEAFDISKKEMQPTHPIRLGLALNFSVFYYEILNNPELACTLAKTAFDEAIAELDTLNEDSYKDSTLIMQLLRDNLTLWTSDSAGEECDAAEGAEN
B3: Disintegrin and metalloproteinase domain-containing protein 22 (Homo sapiens), Q9P0K1-1 (parent)
chain: B2 chain

Variants of: B1
Details: with 1433b_human YWHAB

Row | Variant | effect of a mutation on the interaction
1 | R831Q;S832G | decreasing interaction
2 | R831Q;S832G;R854Q;S855A | disrupting interaction
3 | R854Q;S855A | decreasing interaction

Variants of: B1
Details: with 1433z_human YWHAZ

Row | Variant | effect of a mutation on the interaction
4 | R831Q;S832G | decreasing interaction
5 | R831Q;S832G;R854Q;S855A | disrupting interaction

Variants of: B2
Details: with 1433t_human YWHAQ

Row | Variant | effect of a mutation on the interaction
6 | R831Q;S832G;R854Q;S855A | disrupting interaction

Variants of: B3
Details: with 1433z_human YWHAZ

Row | Variant | effect of a mutation on the interaction
7 | R831Q;S832G;R854Q;S855A | disrupting interaction

Variants of: B3
Details: with 1433b_human YWHAB

Row | Variant | effect of a mutation on the interaction
8 | R831Q;S832G;R854Q;S855A | disrupting interaction
